The values that follow come from patent US20250186614A1, “COMPACT DRUG RESPONSIVE DOMAINS FOR REGULATION OF FUNCTION/ABUNDANCE AND DELIVERY OF POLYPEPTIDE PAYLOADS” (OBSIDIAN THERAPEUTICS, INC., priority 2022, published 2025).

Where a chain is given by its changes, count along the chain named. Names may count otherwise.

Sequences and labels used below:
B1: FKBP-161 (protein)
chain: HCPIKSRKGDVLHSHYTGKLEDGTEFDSSLPRNQPFVFSLGTGERIKGWDQGLLGMCEGEKRKLVIPSELGYGERGWPPKIPGGATLVFEVELLKIER
modifications: Description of sequence: Construct Name: FKBP-161; Mutation(s): Q72R Q84E A117W DRD M54S V85R
B2: FKBP-199: FKBP13 DRD-AcGFP construct of Table 10 (protein)
chain: B1 chain with S14M, E58L
modifications: Description of sequence: Construct Name: FKBP-199; Mutation(s): Q72R Q84E A117W V85R DRD E98L
B3: FKBP-198: FKBP13 DRD-AcGFP construct of Table 10 (protein)
chain: B1 chain with S14M, K61W
modifications: Description of sequence: Construct Name: FKBP-198; Mutation(s): Q72R Q84E A117W V85R DRD K101W
B4: FKBP-200: FKBP13 DRD-AcGFP construct of Table 10 (protein)
chain: B1 chain with S14M, D22S
modifications: Description of sequence: Construct Name: FKBP-200; Mutation(s): Q72R Q84E A117W V85R DRD D62S
B5: FKBP-202 (protein)
chain: B1 chain with G9S, S14A
modifications: Description of sequence: Construct Name: FKBP-202; Mutation(s): Q72R Q84E A117W V85R DRD M54A G49S
B6: FKBP-201: FKBP13 DRD-AcGFP construct of Table 10 (protein)
chain: B1 chain with H13L, S14M
modifications: Description of sequence: Construct Name: FKBP-201; Mutation(s): Q72R Q84E A117W V85R DRD H53L

The nature of the first assay: Example 4: dose response of FKBP constructs 160-255, Ec50, Ec90 and fold change (raw and normalized to mCherry). In kind it is cell-based. The following applies: FKBP constructs 160-255; not normalized; read-out: EC90. The procedure:
Additional experiments were performed for constructs FKBP-160-292.
By EC90 is commonly meant the concentration at which the effect reaches the 90% level. For the molecule B1, the EC90 was found to be 0.512 µM.

With B2, the EC90 came to 0.0717 µM.

For B3, the EC90 was determined as 0.253 µM.

B4: the EC90 was found to be 0.161 µM.

Take B5: the EC90 was determined as 1.01 µM.

For B6, the EC90 was found to be 0.144 µM.

The same assay, now with this note: fold change during initial analysis.
For the molecule B1, the “FC (fold change)” value is reported as 32.3.

Turning to B2, the “FC (fold change)” value was determined as 27.1.

With B3, the “FC (fold change)” value was found to be 54.3.

Take B4: the “FC (fold change)” value is recorded as 33.9.

Take B5: the “FC (fold change)” value came out at 46.2.

For the molecule B6, the “FC (fold change)” value is recorded as 33.1.

Still in this assay, the particulars now being: normalized to mCherry; read-out: EC90 (Norm).
Turning to B1, the EC90 came to 0.541 µM.

For B2, the EC90 amounted to 0.0675 µM.

Take B3: the EC90 was determined as 0.274 µM.

For B4, the EC90 stood at 0.15 µM.

As for B5, the EC90 came out at 1.06 µM.

For B6, the EC90 came to 0.153 µM.
